# Data from US20180118837A1 (Hoffmann-La Roche, published 2018).
# T1: HER4 ECD-HRG complex (human, UniProt Q15303 26-651)
# T1 construct: Her-4 ECD pre-incubated with a 5-fold molar excess of Heregulin; also called Her-4 ECD/Heregulin complex
# T1 sequence 1: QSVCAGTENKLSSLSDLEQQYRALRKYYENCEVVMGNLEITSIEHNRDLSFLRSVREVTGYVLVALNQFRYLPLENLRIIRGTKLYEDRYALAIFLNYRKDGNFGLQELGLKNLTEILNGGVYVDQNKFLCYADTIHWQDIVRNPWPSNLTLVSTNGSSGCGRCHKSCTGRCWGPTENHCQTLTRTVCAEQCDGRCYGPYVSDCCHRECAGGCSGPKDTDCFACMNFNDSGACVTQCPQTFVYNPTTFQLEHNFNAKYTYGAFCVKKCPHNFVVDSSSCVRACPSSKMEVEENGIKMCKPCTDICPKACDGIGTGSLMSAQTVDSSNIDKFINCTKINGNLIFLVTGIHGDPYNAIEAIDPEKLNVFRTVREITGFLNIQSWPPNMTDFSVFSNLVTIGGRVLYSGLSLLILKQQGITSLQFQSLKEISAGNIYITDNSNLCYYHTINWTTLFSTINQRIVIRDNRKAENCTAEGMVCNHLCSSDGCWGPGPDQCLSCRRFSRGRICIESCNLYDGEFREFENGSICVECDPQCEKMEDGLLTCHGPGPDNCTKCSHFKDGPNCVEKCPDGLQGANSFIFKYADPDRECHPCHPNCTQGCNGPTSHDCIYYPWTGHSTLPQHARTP
# T1 sequence 2: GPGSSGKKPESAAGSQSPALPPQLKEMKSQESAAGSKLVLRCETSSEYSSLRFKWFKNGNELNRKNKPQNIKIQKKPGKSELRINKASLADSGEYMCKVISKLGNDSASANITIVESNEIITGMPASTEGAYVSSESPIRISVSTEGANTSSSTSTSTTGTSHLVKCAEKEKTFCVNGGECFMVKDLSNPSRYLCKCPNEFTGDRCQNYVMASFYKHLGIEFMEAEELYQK
# Experiments:
# [1] = target: SBP-tagged HER3-ECD (human); assay: ELISA-type assay, 10 nM Eu-labelled Heregulin-beta on plate-bound SBP-tagged HER3-ECD, M-05-74 titrated
# Sequence of SBP-tagged HER3-ECD (human) (chain, as listed by the source limits assumed, form in doubt): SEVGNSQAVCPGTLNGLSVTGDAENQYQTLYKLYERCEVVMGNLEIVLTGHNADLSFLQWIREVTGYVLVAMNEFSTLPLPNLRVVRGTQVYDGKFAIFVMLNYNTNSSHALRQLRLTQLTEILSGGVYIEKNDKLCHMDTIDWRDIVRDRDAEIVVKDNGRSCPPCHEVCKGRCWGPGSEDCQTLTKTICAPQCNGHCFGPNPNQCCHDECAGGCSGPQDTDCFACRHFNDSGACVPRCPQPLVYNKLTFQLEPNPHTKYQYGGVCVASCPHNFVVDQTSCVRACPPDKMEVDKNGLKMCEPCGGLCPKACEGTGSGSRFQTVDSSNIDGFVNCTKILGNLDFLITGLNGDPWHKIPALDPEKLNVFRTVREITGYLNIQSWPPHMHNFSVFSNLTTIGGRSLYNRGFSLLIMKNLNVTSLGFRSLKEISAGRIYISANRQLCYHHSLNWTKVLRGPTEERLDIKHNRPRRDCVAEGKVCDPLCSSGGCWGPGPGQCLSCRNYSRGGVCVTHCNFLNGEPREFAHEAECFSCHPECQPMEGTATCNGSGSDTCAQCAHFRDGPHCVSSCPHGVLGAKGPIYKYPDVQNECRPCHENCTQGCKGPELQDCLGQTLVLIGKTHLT
# [2] = target: T2, HER3 ECD-HRG complex (human, UniProt P21860 20-643); assay: binding affinity; method not restated (evaluated 'as described above')
# T2 construct: Her-3 ECD pre-incubated with a 5-fold molar excess of Heregulin; also called Heregulin/Her-3 ECD
# T2 sequence (P21860 20-643 limits assumed, one chain of several): as the sequence (chain, as listed by the source limits assumed, form in doubt) above
# [3] = target: T3, human recombinant HER3 ECD (human, UniProt P21860 20-643); assay: binding affinity; method not restated (evaluated 'as described above'); HER3-ECD without HRG
# T3 construct: 68 kDa recombinant protein; also called human-Her3-ECD; full length Her3 ECD
# T3 sequence (P21860 20-643): as the sequence (chain, as listed by the source limits assumed, form in doubt) above
# [4] = target: T3, human recombinant HER3 ECD; assay: binding affinity; method not restated (evaluated 'as described above')
# [5] = target: T2, HER3 ECD-HRG complex; assay: SPR Biacore T100, antibody captured
# [6] = target: T1, HER4 ECD-HRG complex; assay: SPR Biacore T100, antibody captured
molecule,measurement,setting,value
"Europium-labeled Heregulin-beta (PeproTech, Cat. #100-03) (from UniProt Q02297-11 122-186) (ligand)","time-resolved fluorescence signal at the plateau, in the presence of M-05-74",[1],650
"huMab M-05-74_5 (antibody, V domains shown, Humanized variant of M-05-74) VH: QVQLVQSGAELKKPGASVKVSCKASGYTLTDYWIHWVRQAPGQGLEWMGYINPYTGYTESNQKFQGRVTMTADTSTSTAYMELSSLRSEDTAVYYCARPYYYGDYWGQGTTVTVSS VL: EIVLTQSPATLSLSPGERATLSCRASSSVSYMHWYQQKPGQAPRLLIYSTSNLATGIPARFSGSGSGTDFTLTISSLEPEDFAVYYCQQRSSYPFTFGQGTKLEIK",Kd,[2],4.1 nM
same,Kd,[3],3.2 nM
"huMab M-05-74_6 (antibody, V domains shown, Humanized variant of M-05-74) VH: QVQLVQSGAELKKPGASVKVSCKASGYTLTDYWIHWVRQAPGQGLEWMGYINPYTGYTESNQKFQGRVTMTADTSTSTAYMELSSLRSEDTAVYYCARPYYYGDYWGQGTTVTVSS VL: DIQMTQSPSSLSASVGDRVTITCRASSSVSYMHWFQQKPGKAPKLLIYSTSNLQSGVPSRFSGSGSGTDFTLTISSLQPEDFATYYCQQRSSYPFTFGQGTKLEIK",Kd,[2],8.6 nM
same,Kd,[4],8.3 nM
"anti-HER3/HER4 antibody M-05-74 (antibody, V domains shown, Murine monoclonal antibody from hybridoma (culture supernatant or purified full length); also called M-074; M-5-74) VH: QVQLQQSGAELAKPGASVKMSCKTSGYTLTDYWIHWVKQRPGQGLEWIGYINPYTGYTESNQKFKDKATLTADKSSNTAYIQLSSLTSEDSAVYYCARPYYYGDYWGQGTTLTVSS VL: QIVLTQSPAIMSASPGERVTITCSASSSVSYMHWFQQKPGTSPKLLIYSTSNLASGVPARFSGSGSGTSYSLTISRMEAEDAATYYCQQRSSYPFTFGSGTKLEIK","ratio MR (+Heregulin)/MR (-Heregulin), against HER3-ECD alone",[5],3 fold
same,"ratio ka (+Heregulin)/ka (-Heregulin), against HER3-ECD alone",[5],4.85 fold
same,"ratio MR (+Heregulin)/MR (-Heregulin), against HER4-ECD alone",[6],6 fold
same,"ratio ka (+Heregulin)/ka (-Heregulin), against HER4-ECD alone",[6],23.9 fold
